# Assay results taken from patent publication US20240100159A1, “USE OF IL-7R-ALPHA-GAMMA AGONIST PEPTIDES IN CELL MANUFACTURING” (MEDIKINE, INC., priority 2022, published 2024).
# Ends that are not written are not given here.
# T1: hu-IL-7Rγc subunit (human), P31785
# T1 chain: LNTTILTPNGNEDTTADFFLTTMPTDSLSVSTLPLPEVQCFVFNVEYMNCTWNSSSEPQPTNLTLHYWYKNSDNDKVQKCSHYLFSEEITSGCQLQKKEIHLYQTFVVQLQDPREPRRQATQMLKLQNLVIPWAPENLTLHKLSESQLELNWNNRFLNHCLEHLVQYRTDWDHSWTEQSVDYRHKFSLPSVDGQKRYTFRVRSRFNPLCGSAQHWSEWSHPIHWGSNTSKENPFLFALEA
# T2: hu-IL-7Rγc subunit (human, UniProt P31785 23-262, limits assumed)
# T2 construct: also called human Rγc subunit; common γc receptor
# T2 sequence (looked up): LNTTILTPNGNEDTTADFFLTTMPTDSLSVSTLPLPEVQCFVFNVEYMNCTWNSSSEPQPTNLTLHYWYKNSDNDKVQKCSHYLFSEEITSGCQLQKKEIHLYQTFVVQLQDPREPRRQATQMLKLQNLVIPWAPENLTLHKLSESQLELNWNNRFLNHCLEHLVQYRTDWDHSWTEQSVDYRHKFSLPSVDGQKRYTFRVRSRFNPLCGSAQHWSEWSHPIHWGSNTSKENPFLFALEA
# Molecular target: T1, hu-IL-7Rγc subunit (human), P31785
row,IC50,Binder
1,< 100 µM,GNDDSYIVCEEWKGVELCWI (modifications not checked) [SEQ ID NO 278]
2,< 100 µM,PVEVRCQEWEGVELCWVVGI (modifications not checked) [SEQ ID NO 304]
3,< 100 µM,SVEVVCEEWHGVELCWPVFI (modifications not checked) [SEQ ID NO 318]
4,< 100 µM,DVVCQNWDGVDLCWH (modifications not checked) [SEQ ID NO 266]
5,< 100 µM,GPEVVCEEFNRVELCWVEYN (modifications not checked) [SEQ ID NO 305]
6,< 100 µM,RVQVECEDWNGVELCWPVRV (modifications not checked) [SEQ ID NO 296]
7,< 100 µM,IWGRTVVECQDWEGVELCWQ (modifications not checked) [SEQ ID NO 249]
8,< 100 µM,INCQTWNGVELCWVDEGLYQ (modifications not checked) [SEQ ID NO 294]
9,< 100 µM,TDEVSCQEWEGVELCWIERQ (modifications not checked) [SEQ ID NO 303]
10,< 100 µM,IVCEEYNGVELCWVETSVKP (modifications not checked) [SEQ ID NO 309]
11,< 100 µM,IMCQEWDGVELCWLERDKAN (modifications not checked) [SEQ ID NO 289]
12,< 100 µM,HSTVICQDWDGVELCWIEND (modifications not checked) [SEQ ID NO 316]
13,< 100 µM,VVCQEWEGVELCWQTGPGAHA (modifications not checked) [SEQ ID NO 308]
14,< 100 µM,PYGVVCQDWAGVELCWVENR (modifications not checked) [SEQ ID NO 292]
15,< 100 µM,HEAREVVVCQDWYGVELCWQ (modifications not checked) [SEQ ID NO 251]
16,< 100 µM,DVVCQNWEGVDLCWH (modifications not checked) [SEQ ID NO 262]
17,< 100 µM,QLGVECQNWRGVELCWVSEI (modifications not checked) [SEQ ID NO 311]
18,< 100 µM,KSQVECQDWEGVELCWVVSE (modifications not checked) [SEQ ID NO 285]
19,< 100 µM,EQQVVCQEWNGVELCWIEAG (modifications not checked) [SEQ ID NO 310]
20,< 100 µM,VSCQEWDGVELCWVDGDLAA (modifications not checked) [SEQ ID NO 288]
21,< 100 µM,SPSIVCEEWAGVELCWVDYS (modifications not checked) [SEQ ID NO 313]
22,< 100 µM,RLGVECQEWEGVDLCWISAF (modifications not checked) [SEQ ID NO 300]
23,< 100 µM,ERPRSFIECQEWEGVELCWL (modifications not checked) [SEQ ID NO 272]
24,< 100 µM,AVCQDWYGVELCWCMQDILD (modifications not checked) [SEQ ID NO 314]
25,< 100 µM,VECQEWGGVELCWC (modifications not checked) [SEQ ID NO 254]
26,< 100 µM,KITVECQDWDGVELCWPTWI (modifications not checked) [SEQ ID NO 286]

row,IC50,Binder
1,< 100 µM,TWNMSELECQDWNGVEICWH (modifications not checked) [SEQ ID NO 277]
2,< 100 µM,SAPERWVECEDWQGVELCWV (modifications not checked) [SEQ ID NO 259]
3,< 100 µM,RPQIECQEWQGVELCWTREE (modifications not checked) [SEQ ID NO 287]
4,< 100 µM,PEGREVVVCRDWYGVELCWQ (modifications not checked) [SEQ ID NO 248]
5,< 100 µM,GYGVLCQEWQGVELCWPVQREAGV (modifications not checked) [SEQ ID NO 291]
6,< 100 µM,RWAVSCQDWQGIELCWPEWD (modifications not checked) [SEQ ID NO 319]
7,< 100 µM,GQGREVVVCHDWYGVELCWQ (modifications not checked) [SEQ ID NO 264]
8,< 100 µM,LNRSVWIECEEYEGVELCWL (modifications not checked) [SEQ ID NO 280]
9,< 100 µM,VECEEWGGVELCWLADEVMW (modifications not checked) [SEQ ID NO 315]
10,< 100 µM,IECEEWRGVELCWQ (modifications not checked) [SEQ ID NO 247]
11,< 100 µM,GDRPKEVVCEDWKGVELCWI (modifications not checked) [SEQ ID NO 271]
12,< 100 µM,IVCEDWRGVELCWI (modifications not checked) [SEQ ID NO 269]
13,< 100 µM,IVCEEWRGVELCWL (modifications not checked) [SEQ ID NO 256]
14,< 100 µM,DRQVVCEEWDGVELCWIEES (modifications not checked) [SEQ ID NO 297]
15,< 100 µM,RTEVECEDWEGVELCWL (modifications not checked) [SEQ ID NO 322]
16,< 100 µM,SAGRQEVVCQDWNGVELCWI (modifications not checked) [SEQ ID NO 263]
17,< 100 µM,DFERSYVVCQDWDGVELCWI (modifications not checked) [SEQ ID NO 257]
18,< 100 µM,KYIVECQEWGGVELCWPEMV (modifications not checked) [SEQ ID NO 306]
19,< 100 µM,TLGRTVVECQDWGGVELCWQ (modifications not checked) [SEQ ID NO 267]
20,< 100 µM,DWRRSVVECQDWYGVELCWQ (modifications not checked) [SEQ ID NO 265]
21,< 100 µM,GLEIACEDWYGVELCWLRRA (modifications not checked) [SEQ ID NO 290]
22,< 100 µM,TANQTVVECQVWGGVELCWQ (modifications not checked) [SEQ ID NO 253]
23,< 100 µM,TAEVVCQEWDGVELCWIEVL (modifications not checked) [SEQ ID NO 312]
24,< 100 µM,ANQNTVVECQDWHGVELCWQ (modifications not checked) [SEQ ID NO 274]
25,< 100 µM,RPEVVCQEWEGVELCWISPL (modifications not checked) [SEQ ID NO 299]

# Molecular target: T2, hu-IL-7Rγc subunit
row,IC50,Binder
1,< 100 µM,"GYGVVCEDFRGVELCWLERK (not fully specified (bridges); cysteine pairing not given here, also called Rγc ligand) [SEQ ID NO 321]"
2,< 100 µM,"YSRELYVQCEDWEGVELCWI (not fully specified (bridges); cysteine pairing not given here, also called Rγc ligand) [SEQ ID NO 260]"
3,< 100 µM,"AHSRQEVVCEEWYGVELCWI (not fully specified (bridges); cysteine pairing not given here, also called Rγc ligand) [SEQ ID NO 258]"
4,< 100 µM,"IECDTSYGVYICWQ (not fully specified (bridges); cysteine pairing not given here, also called Rγc ligand) [SEQ ID NO 246]"
5,< 100 µM,"DVECVDWGGVELCWH (not fully specified (bridges); cysteine pairing not given here, also called Rγc ligand) [SEQ ID NO 255]"
6,< 100 µM,"LALRKEVVCQEYYGVELCWI (not fully specified (bridges); cysteine pairing not given here, also called Rγc ligand) [SEQ ID NO 250]"
7,< 100 µM,"MVNREVVVCEDWYGVELCWQ (not fully specified (bridges); cysteine pairing not given here, also called Rγc ligand) [SEQ ID NO 252]"
8,< 100 µM,"VGIECEEWAGVELCWL (not fully specified (bridges); cysteine pairing not given here, also called Rγc ligand) [SEQ ID NO 324]"
9,< 100 µM,"ILCEEWQGVELCWLEGGGS (not fully specified (bridges); cysteine pairing not given here, also called Rγc ligand) [SEQ ID NO 323]"
10,< 100 µM,"RTGVECQDWHGVELCWPVWE (not fully specified (bridges); cysteine pairing not given here, also called Rγc ligand) [SEQ ID NO 320]"
